Results published in the DeepSol protein solubility set.

Assay: soluble on expression in E. coli; label from the status in PepcDB or PDB records

Sequence | soluble on expression in E. coli
MDEDVGLEATNYSRGDESRSEEQEKNVVRWRIVQQSTGPNPKPRHGHRAVVLKELIVIFGGGNEGMIDELHAYNTQKREWTAPQCCGDVPTPAAAFGAISLGNKIYRFGGMTEYGKYTNDLYELQSTRWEWRRLNPRVHSNGHLPCPRIGHSFVVSQKSQKAYVFGGLSNDLNDPKRNVPHYLDDLYVINLSGPQHLIWEKLNATGPGPISRESHTAVIYEKDSISRMVVYGGMNGVRLGDLWYLNLNTLHWTEIKFDDPRTGIPPMPRSLHSSVLIGDKMFVYGGWVPLLEHASTEQQTEKEWKCTSSLGCWNITEDRWVPLHLYCSDEDTIPRGRAGHCAAAVGDRMYIWSGRDGYRKAWSNQVCCRDMWLLDTILPEQPGKVQLGRAGFNSLEISWPIVQGASGYFLQIGFGDAKEQSVSPIKRATTSPRKQPSIVPPSQKETEQSPKKPQGTAPSIISTQGTTYTAPADPKPATDEGGLPQDLFEDTEKNETASPKRSNDAQSADSSTCEQKKTDESGLEEDSEKDQKPSDAGETDEMKEENGDDDLPWFDVGIIDKATINVTHYFNDRQQSLEKQLNDLIDHNAFKCVNDSVFTTEDKIPLINGQSYRFRVSAINGLGKGAWSETASCKTCVPGYPSAPSSIRITKSHEGAQLTWEPPSNTNISGKIIEYSVYLAVKNQSANSADSQLAFMRVYCGPQADCQVLQSNLGTAFVDQTNKPAIIFRIAARNEKGYGPATQVRWLQDQQKIPVRTNYPNNSGFIYQQHGGQQKRARFDHQ | not soluble
MEDPQSKEPAGEAVALALLESPRPEGGEEPPRPSPEETQQCKFDGQETKGSKFITSSASDFSDPVYKEIAITNGCINRMSKEELRAKLSEFKLETRGVKDVLKKRLKNYYKKQKLMLKESNFADSYYDYICIIDFEATCEEGNPPEFVHEIIEFPVVLLNTHTLEIEDTFQQYVRPEINTQLSDFCISLTGITQDQVDRADTFPQVLKKVIDLMKLKELGTKYKYSLLTDGSWDMSKFLNIQCQLSRLKYPPFAKKWINIRKSYGNFYKVPRSQTKLTIMLEKLGMDYDGRPHCGLDDSKNIARIAVRMLQDGCELRINEKMHAGQLMSVSSSLPIEGTPPPQMPHFRK | soluble
MSLGFIEEIKSALGNYVITEKKDLIPYMNDASYFTGEMPEAVVLPGSAEDVQTIMRLAYKYEKPVVVKGGGSSLTGSSILKESGIVMSMLRMNRILDINLNDKCVTVEPGLRLNDLQLYLDKYGHFYPPDPASSMAATVGGSISTNAGGLRGVAYGVTKDWILGLDVVLADGTMVKFGNKTLKRTLGYDLTSLMIGSEGTLGVITKAYLKIWPKPQKVARLVAFYQDIESAGRAVNELKVSTIPEMAEFLDKISLDSVPEAITYPPGTKYALIIDVSGPPELLGKKKTETEELLKRYAISTKSTTDPAEMEKIYRARKGLYASILKLRKSEKEYIVIGDIVVPVSELPTSLKEIEKKRDEDGVRAAIFGHIGDGNIHANIFADLGDNSAMDKVNRFMMDLAMVAVKHGGSVSAEHGIGIEKKQLLIEEMKYNNNLRTLDIMKAIKQVFDPKNILNRGNIFEEGHHHHHH | soluble
MAGRKEEELKDLTLLGNQGTTYSFTYNPNLLEVFDNKHPDRDYFVKFNCPEFTTLCPKTGQPDFATIYITYIPDKKCVESKSLKLYLFSFRNHGDFHEDCVNIIMNDLIKVMEPRYIEVWGKFTPRGGISIDPYCNWGRPGTKYEKMAEYRLLNHDLYPEKVDNR | not soluble
MAHHHHHHMSRNVAAEEEWEDVDAPNEEDEEEEDTTINNSDVMMRYKKAALWCNETLQLLLDATKPGAKVHELCKLGDETVAKKLKTMFKGTEKGLAFPTCISVNSCVAHNSPSADDEVASQEIQLGDVVHIDLGIHVDGYCAQVAHTVQVTENNELAADDDASKVISATYGILNTAMRKMRPGVSVYEVTEVIEKAAAHYGVTPVDGVLSHMLKRYIVDSFRCVPQRKVAEHLVHDYTLEAGQVWTLDIVMSSGKGKLKERDVRPTVYKVALDSNYTMKMESARELQREIEAKYQTFPFALRNLETKRARLGLSEMLKHGAVVPYPVLYERDGEVVGHFKITLLITAKKIEPVTGLKPQKAPTLPAYTDELLLEASKLPLTLEKKRKN | not soluble
MGLKAINTSLSKNDLAHLGAGEVGYIRKMRSEEVSRCFPEAPEMGPGIDLWALFGADGTPILLTDNRSSTFFKAAEDDLRTVSLH | not soluble
MGSDKIHHHHHHEHNRSAVTTEGGYYDTEKGFESLINSCYTPLRFWGGKSAAMAFSETGTDILAPGGGCDYPAIVSYQNDFDGTNPISKEYYDRFYKAINFCNTAIYHVKNVPFSDKTLTSKREAEVRFLRAYYYWILVETFGDTYYTDQPSESIVMAPRKTSVAEIYTHIFEDLDFCMDSRLSVAQADGGRVTMWAAKALKARLLLTRASELNDKALYEQAYTLAKEVIDNGPFELSKDFASVFDMENSDGNGNKEVIWYIDYSSTNQLYNQEMDNDIIRSGGNHTHLIFCMKYDDQPGMVRSIEYGRPFNHYMPTRYLLDCYDENIDQRFEVTFRSLWKANGGKTGDNYPYMVQGDTAIWITKDVVPQVKRQWAKGRYQILDRTDIYHEDGSVKSQKQCMPISKFEDPTRATVNEDRGTRDAFIIRVAEMYLIVAEAGAKAGKADALAYMNILRAQRAKAGKEEAMKVAQSDIEDIDFILDERARELVGEQLRWFDLKRMGSEIFIRRIKSGNPDAGKNVKAYHMLRPFPQTLLDAITNKDEFLQNEGYK | not soluble
MIGITGVTGKLGSKVAQLISEQGISARHLARNPQRAALYDNAELVQVAFENSLEAVEALKGIDVLLMVSASESPNRLQQHFAFLDAAHEAGVKHIVYTSFYNAATEATFTLARDHAKTEKYIKERGFTYTFLRDNFYLDFFLDLCLNNGEIRGPAGNGKVSAVARQDVSEVATTILAKPDKWKNQLLNMTGPADLSMADIVHFVSEQKGEIIPYIDESIEEAYASRKAWPAQDWEYDAWVSTYTAIKEGKQAGVSSDIERVLGRPATSLEQLVKTIK | not soluble
MGHHHHHHSHMALLVRVLRNQTSISQWVPVCSRLIPVSPTQGQGDRALSRTSQWPQMSQSQACGGSEQIPGIDIQLNRKYHTTRKLSTTKDSPQPVEEKVGAFTKIIEAMGFTGPLKYSKWKIKIAALRMYTSCVEKTDFEEFLLRCQMPDTFNSWFLITLLHVWMCLVRMKQEGRSGKYMCRIIVHFMWEDVQQRGRVMGVNPYILKKNMILMTNHFYAAILGYDEGILSDDHGLAAALWRTFFNRKCEDPRHLELLVEYVRKQIQYLDSMNGEDLLLTGEVSWRPLVEKNPQSILKPHSPTYNDEGL | not soluble
ERYGALAVPVGPGNLDIQTTFLVDLQSTVVCCTASMGLLLAEEVQRRNLRDKIAVRKVILGAERSSEAILAKIRECLGAESVHDITGLTEVYGPGTGLSCGVPGADGSI | not soluble
MRQGGIYQTKDANKGPVTVPPLRTKTPPPPPPPVRRHEIYEQHKRYTSAPNLQSAVIRIQDDKPRSIMKRNDLVRREQMLYPTVDTQVVKSVVKKPTVTETVQRFEETRRTEEVERRVQRREKKERRSRHHSSSRHHSGWEGHTGGYQEYRQGAITSSLPRRQIIREADRAMTEEEMNKVVREAYAAADEARKDSRHRSSSLSRGGHGGGGQETYYRQETTRRQQHNNYDDNFNRGIAHARYGSLSDSLRRGELQYVPNGEVRQSFYRDGSNGGQRMHKSYSTRDVFTGDGYDDRRSVSSFRRGSQQQVSPFVEFPPTLPRRGGGGDYRREEDAYFRPVSKSRSYADWDDAGRAGMGREVRRYDDDMSRLEAEFRDSLLMPMPAGNMNERDHRTEQLPGGYETFNKERHANSGRRSGRDGKPVDFNEATQEYNYKREQTLNDDRRRR | not soluble
MSLRIESGVCYVINEFCALGNTYMPIDKLVKNCINVLNVKKEEVEKAIYECTLSQKIKVEIINGENCVFTMEYYYCEIGITRKIITLAYDSYKSLEIDVDQKIIQFENENKIKFAPSQVEAIEGAFSNGIEVITGGPGTGKTTIIRCITYIFEELNMKVFMAAPTGRAAKRMSESTGREAKTIHRMLELGYEDEVFFDNNNYSTLQCDVVIIDEASMIDVVLMNSLLKSIGMGTRVIIVGDVDQLPSVGPGNVLRDIIESKCVKVIRLNNIFRQAKESMITVNAHKINSGEMPLLNKKDKDFYFIREDNAEAITNTIISLVYKRLPLFNKSWKAARDIQVLAPMKKGIAGVANLNVSLQSIINPPHKSKDEIKFRDNIFRVGDKVMQIKNNYMLKEGHHHHHH | not soluble
